{"source": "paper doi:10.1101/2023.01.17.524398", "target": "Aplysia punctata ink toxin (APIT), recombinant (Aplysia punctata)", "assay": "MALDI mass spectrometry"}
{"substance": "Aplysia punctata ink toxin (APIT), recombinant (enzyme)", "values": [{"measurement": "stoichiometry N", "result": 2}]}
